Molecular target: human TNFR1-Fc (human) (UniProt P19438)
Assay: quartz crystal microbalance, TNFR1-Fc immobilized

human TNFR1-Fc (human), sequence (P19438 29-211 limits assumed): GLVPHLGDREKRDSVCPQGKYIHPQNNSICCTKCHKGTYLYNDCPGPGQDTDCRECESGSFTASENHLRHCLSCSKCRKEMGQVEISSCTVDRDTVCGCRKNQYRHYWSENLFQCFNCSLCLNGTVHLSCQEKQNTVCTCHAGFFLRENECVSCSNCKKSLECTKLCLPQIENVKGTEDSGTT

Kd: 2.2 nM | fold reduced affinity (against ATROSAB and H398): 10 fold | koff: 0.00076 s⁻¹ | kon: 350000 M⁻¹ s⁻¹
B1: scFv IZI-06.1 (scFv, V domains shown, part only)
VH: QVQLVQSGAEVKKPGSSVKVSCKASGYTFTDFYINWVRQAPGQGLEWIGEIYPYSGHAYYNEKFKARVTITADKSTSTAYMELSSLRSEDTAVYYCARWDFLDYWGQGTTVTVSS
VL: DIVMTQSPLSLPVTPGEPASISCRSSQSLLHSNGNTYLHWYLQKPGQSPQLLIYTVSNRFSGVPDRFSGSGSGTDFTLKISRVEAEDVGVYYCSQSTHVPYTFGGGTKVEIKR
modifications: linker and tags not stated

Reference: US20130251707A1
